System: HIV-1 Rev (HIV-1)
Assay: EMSA
Settings: scale: fold more Rev than RRE for 50% unbound RNA

433-mer RcRE (K-RRE)
binding signal: 8

From paper PMC7842262
